Results from PMC2883945 (Molecular Biology of the Cell, 2010).

T1: Bik1 (purified from insect cells, 6xHis tag removed) (S. cerevisiae, UniProt P11709 1-440)
T1 sequence (looked up): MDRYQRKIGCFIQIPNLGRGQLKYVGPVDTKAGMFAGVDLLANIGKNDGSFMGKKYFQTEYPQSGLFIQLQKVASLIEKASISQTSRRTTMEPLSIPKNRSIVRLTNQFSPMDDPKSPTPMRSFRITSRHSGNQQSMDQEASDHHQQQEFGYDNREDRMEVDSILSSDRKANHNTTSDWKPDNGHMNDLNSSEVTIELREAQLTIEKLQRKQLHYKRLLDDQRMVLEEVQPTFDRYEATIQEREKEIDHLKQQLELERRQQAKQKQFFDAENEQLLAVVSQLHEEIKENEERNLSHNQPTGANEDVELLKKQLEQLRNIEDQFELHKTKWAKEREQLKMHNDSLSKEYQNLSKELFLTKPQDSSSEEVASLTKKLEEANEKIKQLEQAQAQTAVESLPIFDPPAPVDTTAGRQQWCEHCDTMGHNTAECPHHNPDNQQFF

B1: Bik1, endogenous in yeast whole cell extract (natural protein, S. cerevisiae (endogenous in CUY28), UniProt P11709 1-440, looked up)
chain: MDRYQRKIGCFIQIPNLGRGQLKYVGPVDTKAGMFAGVDLLANIGKNDGSFMGKKYFQTEYPQSGLFIQLQKVASLIEKASISQTSRRTTMEPLSIPKNRSIVRLTNQFSPMDDPKSPTPMRSFRITSRHSGNQQSMDQEASDHHQQQEFGYDNREDRMEVDSILSSDRKANHNTTSDWKPDNGHMNDLNSSEVTIELREAQLTIEKLQRKQLHYKRLLDDQRMVLEEVQPTFDRYEATIQEREKEIDHLKQQLELERRQQAKQKQFFDAENEQLLAVVSQLHEEIKENEERNLSHNQPTGANEDVELLKKQLEQLRNIEDQFELHKTKWAKEREQLKMHNDSLSKEYQNLSKELFLTKPQDSSSEEVASLTKKLEEANEKIKQLEQAQAQTAVESLPIFDPPAPVDTTAGRQQWCEHCDTMGHNTAECPHHNPDNQQFF
B2: Bim1 (purified from insect cells, 6xHis tag removed) (natural protein, S. cerevisiae, UniProt P40013 1-344, looked up)
chain: MSAGIGESRTELLTWLNGLLNLNYKKIEECGTGAAYCQIMDSIYGDLPMNRVKFNATAEYEFQTNYKILQSCFSRHGIEKTVYVDKLIRCKFQDNLEFLQWLKKHWIRHKDESVYDPDARRKYRPIITNNSATKPRTVSNPTTAKRSSSTGTGSAMSGGLATRHSSLGINGSRKTSVTQGQLVAIQAELTKSQETIGSLNEEIEQYKGTVSTLEIEREFYFNKLRDIEILVHTTQDLINEGVYKFNDETITGHGNGNGGALLRFVKKVESILYATAEGFEMNDGEDELNDKNLGEHGTVPNQGGYANSNGEVNGNEGSNHDVIMQNDEGEVGVSNNLIIDEETF
B3: Bim1, endogenous in yeast whole cell extract (natural protein, S. cerevisiae (endogenous in CUY28), UniProt P40013 1-344, looked up)
chain: MSAGIGESRTELLTWLNGLLNLNYKKIEECGTGAAYCQIMDSIYGDLPMNRVKFNATAEYEFQTNYKILQSCFSRHGIEKTVYVDKLIRCKFQDNLEFLQWLKKHWIRHKDESVYDPDARRKYRPIITNNSATKPRTVSNPTTAKRSSSTGTGSAMSGGLATRHSSLGINGSRKTSVTQGQLVAIQAELTKSQETIGSLNEEIEQYKGTVSTLEIEREFYFNKLRDIEILVHTTQDLINEGVYKFNDETITGHGNGNGGALLRFVKKVESILYATAEGFEMNDGEDELNDKNLGEHGTVPNQGGYANSNGEVNGNEGSNHDVIMQNDEGEVGVSNNLIIDEETF

Columns and labels:
[1] = molecular target: the molecule itself; assay: SEC + other: sucrose gradient sedimentation
[2] = molecular target: taxol-stabilized microtubules (bovine brain tubulin) (bovine) (UniProt Q6B856); assay: co-sedimentation
[3] = molecular target: T1, Bik1 (purified from insect cells, 6xHis …); assay: SEC + other: sucrose gradient sedimentation

| Binder | stoichiometry N [1] | Kd [2] [nM] | stoichiometry N [3] |
| --- | --- | --- | --- |
| B1 | 2 |  |  |
| B2 |  | 500 | 1 Bim1 per Bik1 (2:2 tetramer) |
| B3 | 2 |  |  |
